Results on one protein are retold here after patent US20060292672.

The data set deals with T1, rhPTH(1-34)Gly35-OH, P01270.
T1 chain: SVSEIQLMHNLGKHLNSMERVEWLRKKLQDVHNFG

B1: peptidylglycine alpha-amidating monooxygenase expressed by cell line UGL 73-26/M (protein)
chain: FRSPLSVFKRFKETTRSFSNECLGTIGPVTPLDASDFALDIRMPGVTPKESDTYFCMSMRLPVDEEAFVIDFKPRASMDTVHHMLLFGCNMPSSTGSYWFCDEGTCTDKANILYAWARNAPPTRLPKGVGFRVGGETGSKYFVLQVHYGDISAFRDNHKDCSGVSVHLTRVPQPLIAGMYLMMSVDTVIPPGEKVVNADISCQYKMYPMHVFAYRVHTHHLGKVVSGYRVRNGQWTLIGRQNPQLPQAFYPVEHPVDVTFGDILAARCVFTGEGRTEATHIGGTSSDEMCNLYIMYYMEAKYALSFMTCTKNVAPDMFRTIPAEANIPIPVKPDMVMMHGHHKEAENKEKSALMQQPKQGEEEVLEQDFHVEEELDWPGVYLLPGQVSGVALDSKNNLVIFHRGDHVWDGNSFDSKFVYQQRGLGPIEEDTILVIDPNNAEILQSSGKNLFYLPHGLSIDTDGNYWVTDVALHQVFKLDPHSKEGPLLILGRSMQPGSDQNHFCQPTDVAVEPSTGAVFVSDGYCNSRIVQFSPSGKFVTQWGEESSGSSPRPGQFSVPHSLALVPHLDQLCVADRENGRIQCFKTDTKEFVREIKHASFGRNVFAISYIPGFLFAVNGKPYFGDQEPVQGFVMNFSSGEIIDVFKPVRKHFDMPHDIVASEDGTVYIGDAHTNTVWKFTLTEKMEHRSV
In the case of B1, the “overall yield of rhPTH(1-34)-NH2 from enzymatic amidation (preparative reaction followed by CEX and RP purification)” value is “yielding 11.8 grams (95% overall yield from amidation) of rhPTH(1-34)-NH2”.
